Laboratory results reported in patent US7544481 (REGENTS OF THE UNIVERSITY OF MICHIGAN, dated 2009).

B1: GSTCD40T (GST fused to the native CD40 cytoplasmic domain) (other, human, UniProt P25942 216-277, looked up)
chain: KKVAKKPTNKAPHPKQEPQEINFPDDLPGSNTAAPVQETLHGCQPVTQEDGKESRISVQERQ
notes: range 216-279; Immobilized on glutathione-agarose beads; also called native CD40 (GSTCD40T); not shown: glutathione S-transferase of the vector pGSTag
B2: cytoplasmic domain of the p55 TNF receptor (amino acids 206-426) fused to the DNA-binding domain of GAL4 (other, UniProt P04386 1-147, looked up)
chain: MKLLSSIEQACDICRLKKLKCSKEKPKCAKCLKNNWECRYSPKTKRSPLTRAHLTEVESRLERLEQLFLLIFPREDLDMILKMDSLQDIKALLTGLFVQDNVNKDAVTDRLASVETDMPLTLRQHRISATSSSEESSNKGQRQLTVSRYQRWKSKLYSIVCGKSTPEKEGELEGTTTKPLAPNPSFSPTPGFTPTLGFSPVPSSTFTSSSTYTPGDCPNFAAPRREVAPPYQGADPILATALASDPIPNPLQKWEDSAHKPQSLDTDDPATLYAVVENVPPLRWKEFVRRLGLSDHEIDRLELQNGRCLREAQYSMLATWRRRTPRREATLELLGRVLRDMDLLGCLEDIEEALCGPAALPPAPSLLR
notes: The numbering probably counts on the mature receptor; also called pTNFR
B3: CD40bp fused to the activation domain of GAL4 (other, not shown: large carriers)
chain: MESSKKMDSPGALQTNPPLKLHTDRSAGTPVFVPEQGGYKEKFVKTVEDKYKCEKCHLVLCSPKQTECGHRFCESCMAALLSSSSPKCTACQESIVKDKVFKDNCCKREILALQIYCRNESRGCAEQLMLGHLVHLKNDCHFEELPCVRPDCKEKVLRKDLRDHVEKACKYREATCSHCKSQVPMIALQKHEDTDCPCVVVSCPHKCSVQTLLRSELSAHLSECVNAPSTCSFKRYGCVFQGTNQQIKAHEASSAVQHVNLLKEWSNSLEKKVSLLQNESVEKNKSIQSLHNQICSFEIEIERQKEMLRNNESKILHLQRVIDSQAEKLKELDKEIRPFRQNWEEADSMKSSVESLQNRVTELESVDKSAGQVARNTGLLESQLSRHDQMLSVHDIRLADMDLGFQVLETASYNGVLIWKIRDYKRRKQEAVMGKTLSLYSQPFYTGYFGYKMCARVYLNGDGMGKGTHLSLFFVIMRGEYDALLPWPFKQKVTLMLMDQGSSRRHLGDAFKPDPNSSSFKKPTGEMNIASGCPVFVAQTVLENGTYIKDDTIFIKVIVDTSDLPDP
notes: Prey from a human B-cell cDNA library; also called CD40bp (yeast prey, pACT)

Tests used:
[1] = biological target: [35S]methionine-labeled luciferase protein (UniProt P08659 1-550 = luciferase, limits assumed, [35S]methionine label); assay: GST pull-down of in vitro translated 35S-labeled protein, autoradiography
Protocol: GST Fusion Protein Expression and In Vitro Binding Assay—Native (CD40T) and mutant (CD40A) CD40 sequences used in the construction of the yeast bait vectors were excised and subcloned into the glutathione S-transferase ("GST") fusion protein vector pGSTag (as described in Ron et al. (1992) *BioTechniques* 13:866-869) and transformed into the *Escherichia coli* strain BL21 […] pLysS (as described in Studier et al. (1991) *J. Mol. Bio.* 219:37-44). GST and GST fusion proteins were prepared using published procedures of Studier et al. (1991) supra, and the recombinant proteins were immobilized onto glutathione-agarose beads at a concentration of about 8 mg/ml (as described in Harper et al. (1993) supra).
Figure 2: FIGS. 2A and 2B show the interaction of in vitro translated CD40bp with GST fusion proteins. [^35S]Methionine-labeled CD40bp or luciferase protein as control was incubated with GST alone, GSTCD40T (native CD40 cytoplasmic domain), or GSTCD40A (mutant CD40 cytoplasmic domain $Thr^234 \rightarrow Ala$). Following incubation and washing, GST beads were boiled in SDS-sample buffer and resolved on a 10% acrylamide gel, and bound protein was visualized by autoradiography.

[2] = biological target: B3; assay: yeast two-hybrid cotransformation, beta-galactosidase filter assay
Description: (§1) Yeast Two-hybrid Screen—Using a modification of the method of Harper et al. (1993) *Cell* 75:805-816, a hybrid gene encoding the GAL4 DNA-binding domain (amino acids 1-147), hemagglutinin ("HA") epitope tag, and CD40 cytoplasmic region (amino acids 216-279) was constructed in the yeast bait vector pAS1CYH2. This construct was designated GAL4CD40, and expression of the fusion protein was confirmed by anti-HA immunoblotting. This bait plasmid was cotransformed with a human B-cell cDNA expression library (prey) fused to the activation domain of GAL4 in the pACT plasmid. Interaction between bait- and prey-encoded genes in the Y190 yeast strain reconstitutes GAL4 as an active transcriptional complex, allowing growth in the absence of histidine and activation of the β-galactosidase reporter gene. Thirty-six of the 10^6 transformants screened grew in the absence of histidine and had detectable β-galactosidase staining within 10 minutes of incubation with the chromogenic substrate 5-bromo-4-chloro-3-indolyl β-D-galactoside. […] Cotransformation assays were repeated in the yeast Y190 strain, where CD40bp fused to the activation domain of GAL4 was cotransformed with native CD40 (pCD40T) or the indicated heterologous baits expressed as fusions with the DNA-binding domain of GAL4. […]

[3] = biological target: yeast Ser-Thr kinase SNF1 fused to the DNA-binding domain of GAL4 (yeast, UniProt P04386 1-147; P06782 1-633, limits assumed); assay: as above
Description: as §1

Sequence of [35S]methionine-labeled luciferase protein (P08659 whole entry, the tested form may be a part): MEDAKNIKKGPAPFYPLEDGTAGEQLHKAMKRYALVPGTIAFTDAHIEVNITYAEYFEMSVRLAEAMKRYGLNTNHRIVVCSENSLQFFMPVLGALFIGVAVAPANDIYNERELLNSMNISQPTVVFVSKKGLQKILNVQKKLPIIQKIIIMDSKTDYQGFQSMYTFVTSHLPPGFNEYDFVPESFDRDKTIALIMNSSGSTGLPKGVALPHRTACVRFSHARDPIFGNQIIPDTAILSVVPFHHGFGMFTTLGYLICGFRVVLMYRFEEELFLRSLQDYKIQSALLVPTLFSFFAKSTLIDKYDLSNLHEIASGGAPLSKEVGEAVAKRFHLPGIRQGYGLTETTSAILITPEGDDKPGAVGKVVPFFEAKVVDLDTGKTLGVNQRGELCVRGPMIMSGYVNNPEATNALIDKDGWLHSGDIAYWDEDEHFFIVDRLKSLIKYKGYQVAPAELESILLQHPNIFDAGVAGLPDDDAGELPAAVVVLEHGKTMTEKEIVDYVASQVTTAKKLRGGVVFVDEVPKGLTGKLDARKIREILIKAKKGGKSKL

Binder: B1
- binding result [1]: no binding

Binder: B2
- binding result [2]: no binding

Binder: B3
- binding result [3]: no binding
